# Measurements: patent US5603943A, “Nasally administrable compositions” (Dott Research Laboratory, priority 1994, dated 1997)
# Values joined by “and” are separate entries in the source; they are usually repeats but may differ in a detail not shown here. Equal values may be shown once. Ends that are not written are not given here.
# Experiments:
# [1] = relative, among calcitonins; cited from earlier work
# blood sugar = assay: Average fall of the blood sugar after nasal or subcutaneous insulin (Test Example 1); format: in vivo, male New Zealand rabbits
# Method: A nasally administrable composition in powdery form was prepared by formulating insulin as a physiologically active peptide at the rate of 2.4 mg/rabbit (5 insulin unit (IU)/rabbit) with hydroxyapatite as a carrier having a mean particle size ranging from 40 to 45 μm.
# The resulting composition was nasally administered once to six male New Zealand rabbits.
# The average fall of the blood sugar was measured and represented in percentage (%) at 0, 15, 30, 60, 120 and 180 minutes after administration.
# For comparison, 2 (IU)/rabbit of insulin was administered subcutaneously to six male New Zealand rabbits and the average fall of the blood sugar was measured and represented in percentage (%) at 0, 60, 120, 240 and 360 minutes after administration.
# [2] = Nasal absorption, clinical effect and irritation (general statement); format: in vivo; conditions: powder in specific carrier, nasal route
# [3] = Somatropin blood concentration, nasal powder with calcium lactate or calcium carbonate (Test Example 11); format: in vivo, healthy male adults (human)
# Method: The blood (2.5 ml) was collected from each of the tested adults prior to administration and then at 5, 10, 15, 20, 30, 45, 60, 90, 120, 150 and 180 minutes after administration.
# [4] = Somatropin blood concentration, nasal powder with hydroxyapatite or calcium carbonate (Test Example 10); format: in vivo, healthy male adults (human); conditions: for Concentration of somatropin in the blood: nasal 6.825 somatropin unit/25 mg
# Method: The blood (2.5 ml) was collected from each of the tested adults prior to administration and then at 5, 10, 15, 20, 30, 45, 60, 90, 120 and 150 minutes after administration.
substance,measurement,setting,value
"eel calcitonin: naturally occurring calcitonin extracted from the origin and commercially available (CSNLSTCVLGKLSQELHKLQTYPRTDVGAGTP; ends and bridges not checked; cysteine pairing not given here; UniProt P01262 1-32, looked up)",stability,[1],higher in stability than human calcitonin
human calcitonin: naturally occurring calcitonin extracted from the origin and commercially available,stability,[1],higher than salmon calcitonin
insulin: peptide hormone formulated with hydroxyapatite for nasal administration; also given subcutaneously as comparison,"Blood sugar, percent of initial value","blood sugar; S.C. comparison, 2 IU/rabbit, 0 min",100%
same,"Blood sugar, percent of initial value","blood sugar; S.C. comparison, 2 IU/rabbit, 60 min",57%
same,"Blood sugar, percent of initial value","blood sugar; S.C. comparison, 2 IU/rabbit, 120 min",56%
same,"Blood sugar, percent of initial value","blood sugar; S.C. comparison, 2 IU/rabbit, 240 min",84%
same,"Blood sugar, percent of initial value","blood sugar; S.C. comparison, 2 IU/rabbit, 360 min",94%
same,absorption through nasal route,"blood sugar; hydroxyapatite, rabbits",high extent of absorption
same,"Blood sugar, percent of initial value","blood sugar; nasal, 5 IU/rabbit, hydroxyapatite, 0 min",100%
same,"Blood sugar, percent of initial value","blood sugar; nasal, 5 IU/rabbit, hydroxyapatite, 15 min",105%
same,"Blood sugar, percent of initial value","blood sugar; nasal, 5 IU/rabbit, hydroxyapatite, 30 min",66%
same,"Blood sugar, percent of initial value","blood sugar; nasal, 5 IU/rabbit, hydroxyapatite, 60 min",67%
same,"Blood sugar, percent of initial value","blood sugar; nasal, 5 IU/rabbit, hydroxyapatite, 120 min",84%
same,"Blood sugar, percent of initial value","blood sugar; nasal, 5 IU/rabbit, hydroxyapatite, 180 min",96%
same,absorption into the body,[2],well absorbed into the body
same,clinical effects,[2],high clinical effects
"somatropin: somatropin (growth hormone; recombinant type--NOVO), 150 mg per composition (1,000 mg) with carrier",Concentration of somatropin in the blood,"[3]; 0 min (predose), nasal 6.825 somatropin unit/25 mg, calcium carbonate, individual cases No. 31-32 in order",0.15 ng/mL and 0.69 ng/mL
same,Concentration of somatropin in the blood,"[3]; 0 min (predose), nasal 6,825 (so in the source) somatropin unit/25 mg, calcium lactate, individual cases No. 29-30 in order",1.15 ng/mL and 0.16 ng/mL
same,Concentration of somatropin in the blood,"[3]; 5 min, nasal 6.825 somatropin unit/25 mg, calcium carbonate, individual cases No. 31-32 in order",0.46 ng/mL and 6.15 ng/mL
same,Concentration of somatropin in the blood,"[3]; 5 min, nasal, 25 mg, calcium lactate, individual cases No. 29-30 in order",2.56 ng/mL and 0.30 ng/mL
same,Concentration of somatropin in the blood,"[3]; 10 min, nasal 6.825 somatropin unit/25 mg, calcium carbonate, individual cases No. 31-32 in order",0.81 ng/mL and 2.81 ng/mL
same,Concentration of somatropin in the blood,"[3]; 10 min, nasal, 25 mg, calcium lactate, individual cases No. 29-30 in order",4.29 ng/mL and 0.37 ng/mL
same,Concentration of somatropin in the blood,"[3]; 15 min, nasal 6.825 somatropin unit/25 mg, calcium carbonate, individual cases No. 31-32 in order",1.13 ng/mL and 2.49 ng/mL
same,Concentration of somatropin in the blood,"[3]; 15 min, nasal, 25 mg, calcium lactate, individual cases No. 29-30 in order",5.11 ng/mL and 0.65 ng/mL
same,Concentration of somatropin in the blood,"[3]; 20 min, nasal 6.825 somatropin unit/25 mg, calcium carbonate, individual cases No. 31-32 in order",1.30 ng/mL and 2.20 ng/mL
same,Concentration of somatropin in the blood,"[3]; 20 min, nasal, 25 mg, calcium lactate, individual cases No. 29-30 in order",5.87 ng/mL and 0.72 ng/mL
same,Concentration of somatropin in the blood,"[3]; 30 min, nasal 6.825 somatropin unit/25 mg, calcium carbonate, individual cases No. 31-32 in order",1.64 ng/mL and 2.12 ng/mL
same,Concentration of somatropin in the blood,"[3]; 30 min, nasal, 25 mg, calcium lactate, individual cases No. 29-30 in order",7.70 ng/mL and 0.79 ng/mL
same,Concentration of somatropin in the blood,"[3]; 45 min, nasal 6.825 somatropin unit/25 mg, calcium carbonate, individual cases No. 31-32 in order",1.79 ng/mL and 1.67 ng/mL
same,Concentration of somatropin in the blood,"[3]; 45 min, nasal, 25 mg, calcium lactate, individual cases No. 29-30 in order",5.99 ng/mL and 0.71 ng/mL
same,Concentration of somatropin in the blood,"[3]; 60 min, nasal 6.825 somatropin unit/25 mg, calcium carbonate, individual cases No. 31-32 in order",1.47 ng/mL and 1.36 ng/mL
same,Concentration of somatropin in the blood,"[3]; 60 min, nasal, 25 mg, calcium lactate, individual cases No. 29-30 in order",6.16 ng/mL and 0.62 ng/mL
same,Concentration of somatropin in the blood,"[3]; 90 min, nasal 6.825 somatropin unit/25 mg, calcium carbonate, individual cases No. 31-32 in order",1.18 ng/mL and 1.02 ng/mL
same,Concentration of somatropin in the blood,"[3]; 90 min, nasal, 25 mg, calcium lactate, individual cases No. 29-30 in order",3.39 ng/mL and 0.58 ng/mL
same,Concentration of somatropin in the blood,"[3]; 120 min, nasal 6.825 somatropin unit/25 mg, calcium carbonate, individual cases No. 31-32 in order",0.79 ng/mL and 0.48 ng/mL
same,Concentration of somatropin in the blood,"[3]; 120 min, nasal, 25 mg, calcium lactate, individual cases No. 29-30 in order",1.70 ng/mL and 0.32 ng/mL
same,Concentration of somatropin in the blood,"[3]; 150 min, nasal 6.825 somatropin unit/25 mg, calcium carbonate, individual cases No. 31-32 in order",0.59 ng/mL and 0.37 ng/mL
same,Concentration of somatropin in the blood,"[3]; 150 min, nasal, 25 mg, calcium lactate, individual cases No. 29-30 in order",0.24 ng/mL
same,Concentration of somatropin in the blood,"[3]; 180 min, nasal 6.825 somatropin unit/25 mg, calcium carbonate, individual cases No. 31-32 in order",1.67 ng/mL and 0.48 ng/mL
same,Concentration of somatropin in the blood,"[3]; 180 min, nasal, 25 mg, calcium lactate, individual cases No. 29-30 in order",0.45 ng/mL and 1.02 ng/mL
same,absorption through nasal route,[3]; calcium lactate and calcium carbonate,high extent of absorption
same,absorption into the body,[2],well absorbed into the body
same,clinical effects,[2],high clinical effects
same,Concentration of somatropin in the blood,"[4]; 0 min (predose), calcium carbonate, individual cases No. 27-28 in order",0.28 ng/mL and 0.24 ng/mL
same,Concentration of somatropin in the blood,"[4]; 0 min (predose), hydroxyapatite, individual cases No. 25-26 in order",0.49 ng/mL and 0.76 ng/mL
same,Concentration of somatropin in the blood,"[4]; 5 min, calcium carbonate, individual cases No. 27-28 in order",0.96 ng/mL and 0.55 ng/mL
same,Concentration of somatropin in the blood,"[4]; 5 min, hydroxyapatite, individual cases No. 25-26 in order",2.44 ng/mL and 3.18 ng/mL
same,Concentration of somatropin in the blood,"[4]; 10 min, calcium carbonate, individual cases No. 27-28 in order",2.55 ng/mL and 1.08 ng/mL
same,Concentration of somatropin in the blood,"[4]; 10 min, hydroxyapatite, individual cases No. 25-26 in order",3.59 ng/mL and 2.27 ng/mL
same,Concentration of somatropin in the blood,"[4]; 15 min, calcium carbonate, individual cases No. 27-28 in order",2.84 ng/mL and 1.41 ng/mL
same,Concentration of somatropin in the blood,"[4]; 15 min, hydroxyapatite, individual cases No. 25-26 in order",4.66 ng/mL and 2.00 ng/mL
same,Concentration of somatropin in the blood,"[4]; 20 min, calcium carbonate, individual cases No. 27-28 in order",3.02 ng/mL and 1.78 ng/mL
same,Concentration of somatropin in the blood,"[4]; 20 min, hydroxyapatite, individual cases No. 25-26 in order",6.25 ng/mL and 1.86 ng/mL
same,Concentration of somatropin in the blood,"[4]; 30 min, calcium carbonate, individual cases No. 27-28 in order",4.11 ng/mL and 1.91 ng/mL
same,Concentration of somatropin in the blood,"[4]; 30 min, hydroxyapatite, individual cases No. 25-26 in order",5.21 ng/mL and 1.67 ng/mL
same,Concentration of somatropin in the blood,"[4]; 45 min, calcium carbonate, individual cases No. 27-28 in order",8.93 ng/mL and 1.99 ng/mL
same,Concentration of somatropin in the blood,"[4]; 45 min, hydroxyapatite, individual cases No. 25-26 in order",4.16 ng/mL and 1.80 ng/mL
same,Concentration of somatropin in the blood,"[4]; 60 min, calcium carbonate, individual cases No. 27-28 in order",13.10 ng/mL and 2.11 ng/mL
same,Concentration of somatropin in the blood,"[4]; 60 min, hydroxyapatite, individual cases No. 25-26 in order",2.93 ng/mL and 1.61 ng/mL
same,Concentration of somatropin in the blood,"[4]; 90 min, calcium carbonate, individual cases No. 27-28 in order",14.60 ng/mL and 1.27 ng/mL
same,Concentration of somatropin in the blood,"[4]; 90 min, hydroxyapatite, individual cases No. 25-26 in order",1.45 ng/mL and 1.41 ng/mL
same,Concentration of somatropin in the blood,"[4]; 120 min, calcium carbonate, individual cases No. 27-28 in order",5.65 ng/mL and 0.92 ng/mL
same,Concentration of somatropin in the blood,"[4]; 120 min, hydroxyapatite, individual cases No. 25-26 in order",0.76 ng/mL and 1.16 ng/mL
same,Concentration of somatropin in the blood,"[4]; 150 min, calcium carbonate, individual cases No. 27-28 in order",2.97 ng/mL and 0.80 ng/mL
same,Concentration of somatropin in the blood,"[4]; 150 min, hydroxyapatite, individual cases No. 25-26 in order",0.91 ng/mL
same,absorption through nasal route,[4]; hydroxyapatite and calcium carbonate,high extent of absorption
